# Data published in patent US11584938B2, “Plant EPSPS mutant containing L195P and S247G mutations and encoding gene and use thereof” (GEVOTO LLC, priority 2017, dated 2023).
# Test system: double knockout E. coli (EPSPS defective E. coli, EDCE)
# Experiment: growth of EPSPS defective E. coli transformed by the EPSPS gene in M9 culture media containing different glyphosate concentrations
# Format: cell-based, E. coli DH5α
# Conditions: for EPSPS enzyme activity: concluded from growth of defective E. coli at 0 mM glyphosate
# Excerpt: A method for detecting the glyphosate resistance of the soybean EPSPS mutant G1 provided in Example 1 and the soybean EPSPS mutant G3 provided in Example 2 is as follows:
# according to the sequence of the nucleic acid molecule provided in the example, synthesizing the encoding gene that encodes the soybean EPSPS mutant G1 or G3 using a chemical synthesis method, introducing enzyme sites (Pac1 and Sbf1) at two ends thereof, connecting to an expression vector (for example, a pADV5 vector, the structure of which is as shown in FIG. 15) that has undergone the same restriction enzyme digestion treatment under the action of ligase after restriction enzyme digestion, then transforming double knockout E. coli, picking positive colonies after verification, inoculating the positive colonies to M9 culture media containing different glyphosate concentrations for growth, and observing the growth situation of the E. coli.
# The wild-type soybean EPSPS (with an amino acid sequence represented by SEQ ID NO: 2 and an encoding gene sequence represented by SEQ ID NO: 1) and the soybean EPSPS mutant G2 (with an amino acid sequence represented by SEQ ID NO: 6, and a corresponding encoding gene sequence represented by SEQ ID NO: 5) merely containing the mutation P114(101)S were taken as controls.
# In the above, the M9 basal culture medium can be prepared by the following method:
# 5×M9 salt solution: 6.78 g of Na2HPO4, 3.0 g of KH2PO4, 0.5 g of NaCl, and 1.0 g of NH4Cl were weighed, added with ddH2O to 200 ml, and subjected to high-temperature and high-pressure sterilization treatment;
# 20% glucose: 20 g of glucose was weighed, added with 80 ml of ddH2O for dissolving, diluted to 100 ml, and subjected to filtration and sterilization treatment;
# 1.0 M MgSO4: 24.6 g of MgSO4-7H2O was weighed, dissolved with 80 ml of ddH2O, diluted to 100 ml, and subjected to sterilization treatment;
# 1.0 M CaCl2: 11.1 g of CaCl2 was weighed, dissolved with 80 ml of ddH2O, diluted to 100 ml, and subjected to sterilization treatment; and
# 1000 ml of the M9 basal culture media were prepared by adding ddH2O to 200 ml of 5×M9 salt solution, 20 ml of 20% glucose, 2 ml of 1.0 M MgSO4 and 0.1 ml of 1.0 M CaCl2 to make up to 1000 ml.
# In the above, the E. coli used was double knockout E. coli, namely, EPSPS defective E. coli (E. coli DH5α with EPSPS gene and C-P Lyase gene being knocked out, named as EDCE, wherein for a preparation method thereof, reference can be made to a Chinese invention patent with the filing number CN2016103256926).
# The glyphosate resistance of the soybean EPSPS mutant G4 provided in Example 3 and the soybean EPSPS mutant G5 provided in Example 4 was verified with reference to the detection method in Experiment Example 1.
# The wild-type wheat EPSPS (with an amino acid sequence represented by SEQ ID NO: 14, and a corresponding encoding gene sequence represented by SEQ ID NO: 13) and the wheat EPSPS mutant T2 (with an amino acid sequence represented by SEQ ID NO: 18, and a corresponding encoding gene sequence represented by SEQ ID NO: 17) merely containing the mutation P118(101)S were taken as controls to verify the glyphosate resistance of the wheat EPSPS mutants T1 and T3 provided in Example 5 and Example 6, and reference can be made to Experiment Example 1 for the method.
# A method for verifying the glyphosate resistance of the wheat EPSPS mutants T4, T5, and T6 provided in Examples 7-9 is the same as that in Experiment Example 3.
# The wild-type rice EPSPS R0 (with an amino acid sequence represented by SEQ ID NO: 28, and a corresponding encoding gene sequence represented by SEQ ID NO: 27) and the rice EPSPS mutant R2 (with an amino acid sequence represented by SEQ ID NO: 32, and a corresponding encoding gene sequence represented by SEQ ID NO: 31) merely containing the mutation P116(101)S were taken as controls to verify the glyphosate resistance of the rice EPSPS mutants R1 and R3 provided in Examples 10 and 11, and reference can be made to Experiment Example 1 for the method. […]
# [1] = culture media containing 0 mM glyphosate
# [2] = culture media containing 20 mM glyphosate
molecule,measurement,setting,value
"R5: rice EPSPS mutant, SEQ ID NO: 38, mutations S267(247)G and P116(101)S (protein) MASNAAAAAAKAEEIVLQPIREISGAVQLPGSKSLSNRILLLSALSEGTTVVDNLLNSEDVHYMLEALKALGLSVEADKVAKRAVVVGCGGKFPVEKDAKEEVQLFLGNAGTAMRSLTAAVTAAGGNATYVLDGVPRMRERPIGDLVVGLKQLGADVDCFLGTECPPVRVKGIGGLPGGKVKLSGSISSQYLSALLMAAPLALGDVEIEIIDKLISIPYVEMTLRLMERFGVKAEHSDSWDRFYIKGGQKYKSPGNAYVEGDASSAGYFLAGAAITGGTVTVQGCGTTSLQGDVKFAEVLEMMGAKVTWTDTSVTVTGPPREPYGKKHLKAVDVNMNKMPDVAMTLAVVALFADGPTAIRDVASWRVKETERMVAIRTELTKLGASVEEGPDYCIITPPEKLNITAIDTYDDHRMAMAFSLAACADVPVTIRDPGCTRKTFPNYFDVLSTFVRN",EPSPS enzyme activity,,normal EPSPS enzyme activity
same,growth of the E. coli transformed by the EPSPS,[1],could grow
same,growth of the E. coli transformed by the EPSPS,[2],could grow
same,growth of the transformed E. coli compared with E. coli transformed by the control EPSPS named in the value,[2],obviously superior to that of the E. coli transformed by R2
"R6: rice EPSPS mutant, SEQ ID NO: 40, mutations S267(247)G, L214(195)P and P116(101)S (protein) MASNAAAAAAKAEEIVLQPIREISGAVQLPGSKSLSNRILLLSALSEGTTVVDNLLNSEDVHYMLEALKALGLSVEADKVAKRAVVVGCGGKFPVEKDAKEEVQLFLGNAGTAMRSLTAAVTAAGGNATYVLDGVPRMRERPIGDLVVGLKQLGADVDCFLGTECPPVRVKGIGGLPGGKVKLSGSISSQYLSALLMAAPLALGDVEIEIIDKPISIPYVEMTLRLMERFGVKAEHSDSWDRFYIKGGQKYKSPGNAYVEGDASSAGYFLAGAAITGGTVTVQGCGTTSLQGDVKFAEVLEMMGAKVTWTDTSVTVTGPPREPYGKKHLKAVDVNMNKMPDVAMTLAVVALFADGPTAIRDVASWRVKETERMVAIRTELTKLGASVEEGPDYCIITPPEKLNITAIDTYDDHRMAMAFSLAACADVPVTIRDPGCTRKTFPNYFDVLSTFVRN",EPSPS enzyme activity,,normal EPSPS enzyme activity
same,growth of the E. coli transformed by the EPSPS,[1],could grow
same,growth of the E. coli transformed by the EPSPS,[2],could grow
same,growth of the transformed E. coli compared with E. coli transformed by the control EPSPS named in the value,[2],superior to that of the E. coli transformed by R2
